Measurements reported in publication doi:10.1101/2020.12.10.418392.

Target: T1, RLP42-GFP (A. thaliana) (UniProt Q9LJS0)
T1 sequence: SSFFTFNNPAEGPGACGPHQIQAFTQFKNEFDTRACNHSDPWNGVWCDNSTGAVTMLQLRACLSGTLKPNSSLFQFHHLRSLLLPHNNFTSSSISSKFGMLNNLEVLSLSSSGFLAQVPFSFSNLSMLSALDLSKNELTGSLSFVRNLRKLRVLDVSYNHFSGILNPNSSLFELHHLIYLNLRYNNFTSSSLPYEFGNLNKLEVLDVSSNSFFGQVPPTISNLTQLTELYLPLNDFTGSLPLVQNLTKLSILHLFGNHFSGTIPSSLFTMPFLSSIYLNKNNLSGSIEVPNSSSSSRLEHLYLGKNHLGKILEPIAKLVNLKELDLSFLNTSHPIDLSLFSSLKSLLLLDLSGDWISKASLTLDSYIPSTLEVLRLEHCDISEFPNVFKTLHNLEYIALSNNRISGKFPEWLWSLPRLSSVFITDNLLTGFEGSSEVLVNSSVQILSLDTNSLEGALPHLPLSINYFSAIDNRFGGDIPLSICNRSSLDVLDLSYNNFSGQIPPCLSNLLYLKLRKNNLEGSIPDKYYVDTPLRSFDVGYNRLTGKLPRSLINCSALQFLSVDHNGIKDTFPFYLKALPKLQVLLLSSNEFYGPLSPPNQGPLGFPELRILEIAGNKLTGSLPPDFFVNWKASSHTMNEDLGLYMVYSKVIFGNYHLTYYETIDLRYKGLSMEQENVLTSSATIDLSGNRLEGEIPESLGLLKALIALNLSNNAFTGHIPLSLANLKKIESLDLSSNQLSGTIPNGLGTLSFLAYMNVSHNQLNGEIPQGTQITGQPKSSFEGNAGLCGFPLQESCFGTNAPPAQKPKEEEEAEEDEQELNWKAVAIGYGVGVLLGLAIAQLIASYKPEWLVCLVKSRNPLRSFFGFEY

AKNTDGFDL [Oom-pg9]
EC50 of ethylene production in A. thaliana Col-0 leaves: 1300 nM
